According to IntAct's records for PubMed 17306257:

B1: SH3 domain-binding protein 2 (Homo sapiens), P78314 (parent)
chain: MAAEEMHWPVPMKAIGAQNLLTMPGGVAKAGYLHKKGGTQLQLLKWPLRFVIIHKRCVYYFKSSTSASPQGAFSLSGYNRVMRAAEETTSNNVFPFKIIHISKKHRTWFFSASSEEERKSWMALLRREIGHFHEKKDLPLDTSDSSSDTDSFYGAVERPVDISLSPYPTDNEDYEHDDEDDSYLEPDSPEPGRLEDALMHPPAYPPPPVPTPRKPAFSDMPRAHSFTSKGPGPLLPPPPPKHGLPDVGLAAEDSKRDPLCPRRAEPCPRVPATPRRMSDPPLSTMPTAPGLRKPPCFRESASPSPEPWTPGHGACSTSSAAIMATATSRNCDKLKSFHLSPRGPPTSEPPPVPANKPKFLKIAEEDPPREAAMPGLFVPPVAPRPPALKLPVPEAMARPAVLPRPEKPQLPHLQRSPPDGQSFRSFSFEKPRQPSQADTGGDDSDEDYEKVPLPNSVFVNTTESCEVERLFKATSPRGEPQDGLYCIRNSSTKSGKVLVVWDETSNKVRNYRIFEKDSKFYLEGEVLFVSVGSMVEHYHTHVLPSHQSLLLRHPYGYTGPR

Variants of: B1
Details: with sh3k1_human SH3KBP1, Q96B97
Sequence of sh3k1_human SH3KBP1, Q96B97 (Q96B97 whole entry): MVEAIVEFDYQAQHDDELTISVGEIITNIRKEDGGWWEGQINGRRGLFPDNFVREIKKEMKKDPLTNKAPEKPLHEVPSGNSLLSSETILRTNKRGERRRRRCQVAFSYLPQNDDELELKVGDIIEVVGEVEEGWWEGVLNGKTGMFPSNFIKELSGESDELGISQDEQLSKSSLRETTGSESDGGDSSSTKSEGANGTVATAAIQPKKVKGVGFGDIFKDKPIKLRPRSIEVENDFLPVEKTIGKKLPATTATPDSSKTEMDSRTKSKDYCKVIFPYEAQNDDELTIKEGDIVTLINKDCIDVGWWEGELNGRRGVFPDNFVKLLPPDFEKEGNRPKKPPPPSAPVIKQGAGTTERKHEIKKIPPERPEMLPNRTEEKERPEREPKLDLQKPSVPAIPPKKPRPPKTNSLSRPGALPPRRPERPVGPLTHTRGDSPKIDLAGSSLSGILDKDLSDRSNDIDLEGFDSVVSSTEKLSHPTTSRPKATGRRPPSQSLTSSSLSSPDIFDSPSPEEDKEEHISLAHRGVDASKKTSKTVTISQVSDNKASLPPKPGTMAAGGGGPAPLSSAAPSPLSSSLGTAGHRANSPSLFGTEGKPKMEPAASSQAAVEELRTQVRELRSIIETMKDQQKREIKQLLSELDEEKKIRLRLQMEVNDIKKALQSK

Row | Variant | effect of a mutation on the interaction
1 | R213A | decreasing interaction
